Results as given in patent US20240043568A1 (KEYMED BIOSCIENCES, published 2024).

What was measured:
human GPC3 on cells = target: T1, human GPC3 on cells (human, UniProt P51654 25-563); assay: flow cytometry, CHO-human GPC3 cells
T1 construct: whole, on cells; One molecule is used for both CHO-hGPC3 transfectants and GPC3+ HepG2 cells; The assay field names the cell; also called CHO-hGPC3 (clone 2B10); CHO-human GPC3
Protocol: (§1) CHO-human GPC3 and CHO-cynomolgus monkey GPC3 stably-transfected cells in the logarithmic growth phase were taken, adjusted to 5×10⁵ cells/ml using 4% calf serum (Hyclone, SH30626.06), and added to a 96-well U-shaped plate at 100 μl/well cell suspension. The centrifugation was performed at 300 g for 5 min. The supernatant was discarded. 100 μL of gradient diluted antibody (initial concentration: 1800 nM, 3-fold dilution, 10 gradients) was added to each well, and incubated at 4° C. for 60 min. The secondary antibody Alexa Fluro647 labeled goat anti-human IgG Fc (1:300 dilution) was added at 50 μL/well and incubated on ice for 20 min. After washing once, propidium iodide solution (1:300) was added at 50 μL/well. Incubation was performed for 5 min before detection by flow cytometry.

[1] = target: T2, human CD3εγ-Fc heterodimer (human); assay: SPR (Biacore T200), CD3εγ amine-coupled to the chip, antibody as analyte
T2 construct: also called human CD3 εγ protein; recombinant CD3 εγ protein
T2 chain 1: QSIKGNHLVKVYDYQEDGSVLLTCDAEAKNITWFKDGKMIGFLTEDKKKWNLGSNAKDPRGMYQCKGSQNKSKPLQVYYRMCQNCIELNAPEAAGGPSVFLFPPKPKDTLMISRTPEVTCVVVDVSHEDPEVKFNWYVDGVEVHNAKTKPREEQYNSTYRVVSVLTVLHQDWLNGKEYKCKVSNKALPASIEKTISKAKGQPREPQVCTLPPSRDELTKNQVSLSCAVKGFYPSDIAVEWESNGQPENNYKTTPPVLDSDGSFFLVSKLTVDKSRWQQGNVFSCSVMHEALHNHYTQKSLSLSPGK
T2 chain 2: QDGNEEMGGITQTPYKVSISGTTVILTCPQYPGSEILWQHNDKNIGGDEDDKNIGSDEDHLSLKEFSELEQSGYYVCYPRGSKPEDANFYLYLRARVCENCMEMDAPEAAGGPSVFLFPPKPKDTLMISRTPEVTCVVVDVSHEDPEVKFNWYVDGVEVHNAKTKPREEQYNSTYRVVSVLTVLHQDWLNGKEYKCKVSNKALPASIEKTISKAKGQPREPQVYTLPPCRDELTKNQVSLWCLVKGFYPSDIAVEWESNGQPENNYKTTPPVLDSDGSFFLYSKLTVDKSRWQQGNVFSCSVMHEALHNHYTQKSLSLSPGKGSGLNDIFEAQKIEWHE
Protocol: (§2) Human or monkey CD3 εγ recombinant antigen at 10 μg/mL was bound to a CMS chip (GE healthcare) by amino coupling, and the antigen binding capacity was controlled to approximately 200 RU. After the baseline was stable, gradient diluted antibodies (initially with 10 μg/mL, 2-fold dilution, 7 gradients) were flowed through the chip at a flow rate of 30 μL/min, with an association time of 350 seconds and a dissociation time of 600 seconds. The kinetic constants were obtained by fitting with 1:1 binding model using Biacore T200 evaluation software.

[2] = target: T3, cynomolgus monkey CD3εγ-Fc heterodimer (cynomolgus monkey); assay: as above
T3 construct: also called monkey CD3 εγ protein
T3 chain 1: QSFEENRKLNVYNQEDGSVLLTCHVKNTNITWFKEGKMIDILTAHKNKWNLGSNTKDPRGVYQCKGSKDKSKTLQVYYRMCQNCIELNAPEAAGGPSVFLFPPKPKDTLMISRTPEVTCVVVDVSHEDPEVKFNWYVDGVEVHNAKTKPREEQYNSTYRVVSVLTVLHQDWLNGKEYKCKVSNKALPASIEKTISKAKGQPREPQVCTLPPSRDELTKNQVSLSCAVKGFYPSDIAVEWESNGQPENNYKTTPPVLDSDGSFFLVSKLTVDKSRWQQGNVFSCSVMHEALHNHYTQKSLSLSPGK
T3 chain 2: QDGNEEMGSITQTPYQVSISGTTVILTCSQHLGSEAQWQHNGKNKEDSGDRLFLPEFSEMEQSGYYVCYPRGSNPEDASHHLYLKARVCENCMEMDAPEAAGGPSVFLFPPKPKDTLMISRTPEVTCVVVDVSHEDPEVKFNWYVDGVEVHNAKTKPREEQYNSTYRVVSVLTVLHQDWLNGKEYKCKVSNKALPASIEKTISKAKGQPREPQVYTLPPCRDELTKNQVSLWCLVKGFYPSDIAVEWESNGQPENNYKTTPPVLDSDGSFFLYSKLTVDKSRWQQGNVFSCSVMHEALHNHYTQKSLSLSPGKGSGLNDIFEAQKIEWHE
Protocol: as §2

human CD3 on T cells = target: T4, human CD3 on T cells (human, UniProt P07766 23-207); assay: flow cytometry, Jurkat cells
T4 construct: whole, on cells; The target is the native CD3 complex on cells; The recombinant antigen used elsewhere is the εγ heterodimer; also called CD3 on Jurkat cells; CD3 on human peripheral blood CD4+ and CD8+ T cells
Protocol: Jurkat cells in the logarithmic growth phase were taken, added with 200 μg/mL of murine IgG (Jackson ImmunoResearch, 115-005-03), and incubated on ice for 30 minutes. The cells were adjusted to 5×10⁵ cells/mL with 4% calf serum and added to a 96-well U-shaped plate at 100 μl/well. The centrifugation was performed at 300 g. The supernatant was discarded. 100 μL of gradient diluted antibody (initial concentration: 1800 nM, 3-fold dilution, 10 gradients) was added to each well, and incubated at 4° C. for 60 min. The secondary antibody Alexa Fluro647 labeled goat anti-human IgG Fc (1:300 dilution) was added at 50 μL/well and incubated on ice for 20 min. After washing once, PI solution was added at 50 μL/well. Incubation was performed for 5 min before detection by flow cytometry (BD C6).

[3] = target: T5, cynomolgus monkey GPC3 on CHO cells (cynomolgus monkey, UniProt A0A2K5VK50 24-579); assay: flow cytometry, CHO-cynomolgus monkey GPC3 cells
T5 construct: whole, on cells; also called CHO-cynoGPC3 (clone 4D6); CHO-cynomolgus monkey GPC3
Protocol: as §1

B1: GPC3×CD3 κλ002 (bispecific antibody, human IgG4 S228P, kappa, lambda)
light 1: DVVMTQSPLSLPVTPGEPASISCRSSQSIVHSNGNTYLEWYLKKPGQSPQLLIYKVSNRFSGVPDRFSGSGSGTDFTLKISRVEAEDVGVYFCLQVTHVPLTFGQGTKLEIKRTVAAPSVFIFPPSDEQLKSGTASVVCLLNNFYPREAKVQWKVDNALQSGNSQESVTEQDSKDSTYSLSSTLTLSKADYEKHKVYACEVTHQGLSSPVTKSFNRGEC
heavy 1: QVQLVQSGAEVKKPGSSVKVSCKASGYTFADYEIHWVREAPGQGLEWMGAIHPGSGGTAYAQKFQGRVTLTADESSTTAYMELSSLRSEDTAVYYCTRYYSFAYWGQGTLVTVSSASTKGPSVFPLAPCSRSTSESTAALGCLVKDYFPEPVTVSWNSGALTSGVHTFPAVLQSSGLYSLSSVVTVPSSSLGTKTYTCNVDHKPSNTKVDKRVESKYGPPCPPCPAPEFEGGPSVFLFPPKPKDTLMISRTPEVTCVVVDVSQEDPEVQFNWYVDGVEVHNAKTKPREEQFNSTYRVVSVLTVLHQDWLNGKEYKCKVSNKGLASSIEKTISKAKGQPREPQVCTLPPSQEEMTKNQVSLSCAVKGFYPSDIAVEWESNGQPENNYKTTPPVLDSDGSFFLVSKLTVDKSRWQEGNVFSCSVMHEALHNHYTQKSLSLSLGK
light 2: QAVVTQEPSLTVSPGGTVTLTCRSSTGAVTTSNYANWVQEKPGQAPRGLIGGTNKRAPWTPARFSGSLLGGKAALTITGAQAEDEAEYYCVLWYSNLWVFGGGTKLTVLGQPKAAPSVTLFPPSSEELQANKATLVCLISDFYPGAVTVAWKADSSPVKAGVETTTPSKQSNNKYAASSYLSLTPEQWKSHRSYSCQVTHEGSTVEKTVAPTECS
heavy 2: EVQLVESGGGLVQPGGSLRLSCAASGFTFNTYAMNWVRKAPGKGLEWVGRIRSKYNNYATYYADSVKDRFTISRDDSKNSLYLQMNSLKTEDTAVYYCVRHGNFGNSYVSWFAYWGQGTLVTVSSASTKGPSVFPLAPCSRSTSESTAALGCLVKDYFPEPVTVSWNSGALTSGVHTFPAVLQSSGLYSLSSVVTVPSSSLGTKTYTCNVDHKPSNTKVDKRVESKYGPPCPPCPAPEFEGGPSVFLFPPKPKDTLMISRTPEVTCVVVDVSQEDPEVQFNWYVDGVEVHNAKTKPREEQFNSTYRVVSVLTVLHQDWLNGKEYKCKVSNKGLASSIEKTISKAKGQPREPQVYTLPPCQEEMTKNQVSLWCLVKGFYPSDIAVEWESNGQPENNYKTTPPVLDSDGSFFLYSKLTVDKSRWQEGNVFSCSVMHEALHNHYTQKSLSLSLGK
notes: also called GPC3 x CD3 κλ002; GPC3×CD3κλ bispecific antibody
In the case of B1, the EC50 (human GPC3 on cells) is reported as 2.8 nM, the Kd [1] is reported as 15.9 nM and the Kd [2] is reported as 23.9 nM. The EC50 (human CD3 on T cells) was 36 nM and the EC50 [3] was 3 nM.

B2: GPC3×CD3 κλ003 (bispecific antibody, human IgG4 S228P, kappa, lambda)
light 1: DVVMTQSPLSLPVTPGEPASISCRSSQSIVHSNGNTYLEWYLKKPGQSPQLLIYKVSNRFSGVPDRFSGSGSGTDFTLKISRVEAEDVGVYFCLQVTHVPLTFGQGTKLEIKRTVAAPSVFIFPPSDKKLKSGTASVVCLLNNFYPREAKVQWKVDNALQSGNSQESVTEQDSKDSTYSLSSTLTLSKADYEKHKVYACEVTHQGLSSPVTKSFNRGEC
heavy 1: QVQLVQSGAEVKKPGSSVKVSCKASGYTFADYEIHWVREAPGQGLEWMGAIHPGSGGTAYAQKFQGRVTLTADESSTTAYMELSSLRSEDTAVYYCTRYYSFAYWGQGTLVTVSSASTKGPSVFPLAPCSRSTSESTAALGCLVEDYFPEPVTVSWNSGALTSGVHTFPAVLQSSGLYSLSSVVTVPSSSLGTKTYTCNVDHKPSNTKVDERVESKYGPPCPPCPAPEFEGGPSVFLFPPKPKDTLMISRTPEVTCVVVDVSQEDPEVQFNWYVDGVEVHNAKTKPREEQFNSTYRVVSVLTVLHQDWLNGKEYKCKVSNKGLASSIEKTISKAKGQPREPQVCTLPPSQEEMTKNQVSLSCAVKGFYPSDIAVEWESNGQPENNYKTTPPVLDSDGSFFLVSKLTVDKSRWQEGNVFSCSVMHEALHNHYTQKSLSLSLGK
light 2: QAVVTQEPSLTVSPGGTVTLTCRSSTGAVTTSNYANWVQEKPGQAPRGLIGGTNKRAPWTPARFSGSLLGGKAALTITGAQAEDEAEYYCVLWYSNLWVFGGGTKLTVLGQPKAAPSVTLFPPSSEELQANKATLVCLISDFYPGAVTVAWKADSSPVKAGVETTTPSKQSNNKYAASSYLSLTPEQWKSHRSYSCQVTHEGSTVEKTVAPTECS
heavy 2: EVQLVESGGGLVQPGGSLRLSCAASGFTFNTYAMNWVRKAPGKGLEWVGRIRSKYNNYATYYADSVKDRFTISRDDSKNSLYLQMNSLKTEDTAVYYCVRHGNFGNSYVSWFAYWGQGTLVTVSSASTKGPSVFPLAPCSRSTSESTAALGCLVKDYFPEPVTVSWNSGALTSGVHTFPAVLQSSGLYSLSSVVTVPSSSLGTKTYTCNVDHKPSNTKVDKRVESKYGPPCPPCPAPEFEGGPSVFLFPPKPKDTLMISRTPEVTCVVVDVSQEDPEVQFNWYVDGVEVHNAKTKPREEQFNSTYRVVSVLTVLHQDWLNGKEYKCKVSNKGLASSIEKTISKAKGQPREPQVYTLPPCQEEMTKNQVSLWCLVKGFYPSDIAVEWESNGQPENNYKTTPPVLDSDGSFFLYSKLTVDKSRWQEGNVFSCSVMHEALHNHYTQKSLSLSLGK
notes: also called GPC3 x CD3 κλ003; GPC3×CD3κλ bispecific antibody
B2 gave an EC50 (human GPC3 on cells) of 2.9 nM, a Kd [1] of 12.1 nM and a Kd [2] of 17.8 nM. The EC50 (human CD3 on T cells) was 26 nM and the EC50 [3] was 3 nM.
